± gives the uncertainty stated by the source.
Assay: self-splicing fitness, log relative to wild type (ln ratio); higher = more splicing; Tetrahymena group I intron in knt gene, E. coli kanamycin selection, DiMSum; sequences stand for … in CUCUCU…GGAGGGAAAAGUUAUCAGGCAUGCACCUGGUAGCUAGUCUUUAAACCAAUAGAUUGCAUCGGUUUAAAAGGCAAGACCGUCAAAUUGCGGGAAAGGGGUCAACAGCCGUUCAGUACCAAGUCUCAGGGGAAACUUUGAGAUGGCCUUGCAAAGGGUAUGGUAAUAAGCUGACGGACAUGGUCCUAACCACGCAGCCAAGUCCUAAGUCAACAGAUCUUCUGUUGAUAUGGAUGCAGUUCACAGACUAAAUGUCGGUCGGGGAAGAUGUAUUCUUCUCAUAAGAUAUAGUCGGACCUCUCCUUAAUGGGAGCUAGCGGAUGAAGUGAUGCAACACUGGAGCCGCUGGGAACUAAUUUGUAUGCGAAAGUAUAUUGAUUAGUUUUGGAGUACUCGUGGUCG
Method in brief: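 Colonies from six replicate transformations of E. coli BL21(DE3) were pooled and amplicon-sequenced on an Illumina HiSeq 2500. The library placed an intron with all eight P1ex-region nucleotides randomised inside the knt kanamycin-resistance gene on pET-22b(+), and cells grew overnight at 37°C or 30°C on LB agar with or without 25 μg/mL kanamycin (plus 100 μg/mL carbenicillin, 50 μM IPTG, 0.2% rhamnose). Fitness is the DiMSum error-weighted combination of wild-type-normalised replicate fold changes, kanamycin versus none.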

Sequence | self-splicing fitness (ln) (30 °C) | self-splicing fitness (ln) (37 °C)
GACGAGCAAUAUUACGAGCA | -3.31 ± 0.35 | -2.65 ± 0.3
GACGAGCAAUAUUACGAUGA | -4.01 ± 0.39 | -2.14 ± 0.2
GACGAGCAAUAUUACGCAUG | -3.07 ± 0.25 | -1.61 ± 0.19
GACGAGCAAUAUUACGCCAU | -2.23 ± 0.49 | 
GACGAGCAAUAUUACGCGUC | -2.57 ± 0.5 | 
GACGAGCAAUAUUACGCUAC | -2.62 ± 0.18 | -2.54 ± 0.26
GACGAGCAAUAUUACGCUCU | -3.92 ± 0.27 | -1.64 ± 0.32
GACGAGCAAUAUUACGCUUG | -4 ± 0.26 | -1.27 ± 0.16
GACGAGCAAUAUUACGGACG | -1.64 ± 0.21 | -2.33 ± 0.31
GACGAGCAAUAUUACGGAGG | -3.68 ± 0.26 | -2.97 ± 0.35
GACGAGCAAUAUUACGGAGU | -3.71 ± 0.35 | -2.49 ± 0.24
GACGAGCAAUAUUACGGCAC | -2.53 ± 0.18 | -1.62 ± 0.16
GACGAGCAAUAUUACGGGAC | -3.94 ± 0.31 | -2.23 ± 0.46
GACGAGCAAUAUUACGGGCG | -3.8 ± 0.27 | -1.08 ± 0.17
GACGAGCAAUAUUACGGGUU | -3.77 ± 0.18 | -2.75 ± 0.21
GACGAGCAAUAUUACGUACG | -2.63 ± 0.29 | -2.17 ± 0.33
GACGAGCAAUAUUACGUGGC | -0.192 ± 0.41 | -1.57 ± 0.22
GACGAGCAAUAUUACGUUAC |  | -0.804 ± 0.25
GACGAGCAAUAUUACGUUGA | -2.36 ± 0.22 | -1.5 ± 0.17
GACGAGCAAUAUUACGUUGC | -4.31 ± 0.3 | -2.48 ± 0.24
GACGAGCAAUAUUACGUUUG | -3.1 ± 0.22 | -1.94 ± 0.26
GACUAGCAAUAUUACGAACC | -1.64 ± 0.17 | -0.0491 ± 0.19
GACUAGCAAUAUUACGAGUA | -0.991 ± 0.067 | -0.253 ± 0.069
GACUAGCAAUAUUACGAUCC | -2.21 ± 0.18 | -1.57 ± 0.2

Sequence | self-splicing fitness (ln) (30 °C) | self-splicing fitness (ln) (37 °C)
GACUAGCAAUAUUACGAUGU | -2.24 ± 0.15 | -1.53 ± 0.17
GACUAGCAAUAUUACGAUUA | -0.841 ± 0.069 | -0.413 ± 0.082
GACUAGCAAUAUUACGCCCC | -0.792 ± 0.23 | -0.904 ± 0.27
GACUAGCAAUAUUACGCGAC | -1.59 ± 0.28 | -0.817 ± 0.27
GACUAGCAAUAUUACGCGCG | 0.097 ± 0.11 | -0.349 ± 0.11
GACUAGCAAUAUUACGCGCU | -0.916 ± 0.095 | -0.878 ± 0.12
GACUAGCAAUAUUACGGAGA | -3.49 ± 0.23 | -2.04 ± 0.19
GACUAGCAAUAUUACGGAGU | -4.2 ± 0.25 | -2.87 ± 0.21
GACUAGCAAUAUUACGGUGU | -1.84 ± 0.098 | -0.76 ± 0.1
GACUAGCAAUAUUACGUAAU | -1.31 ± 0.077 | -0.482 ± 0.092
GACUAGCAAUAUUACGUAGG | -1.95 ± 0.091 | -1.03 ± 0.11
GACUAGCAAUAUUACGUAUU | -1.11 ± 0.072 | -0.646 ± 0.079
GACUAGCAAUAUUACGUCGG | -3.55 ± 0.21 | -3.32 ± 0.24
GACUAGCAAUAUUACGUCUC | -1.46 ± 0.16 | -0.484 ± 0.16
GAGAAGCAAUAUUACGAAAU | -3.17 ± 0.23 | -1.63 ± 0.19
GAGAAGCAAUAUUACGAACG | -0.734 ± 0.12 | -0.343 ± 0.17
GAGAAGCAAUAUUACGACAA | -0.787 ± 0.1 | -0.365 ± 0.12
GAGAAGCAAUAUUACGAGUC | -2.11 ± 0.11 | -1.78 ± 0.2
GAGAAGCAAUAUUACGAUAC | -1.73 ± 0.13 | -0.221 ± 0.18
GAGAAGCAAUAUUACGCAUG | -1.99 ± 0.11 | -1.04 ± 0.14
GAGAAGCAAUAUUACGCGAC | -2.78 ± 0.17 | -1.38 ± 0.15
GAGAAGCAAUAUUACGCUAG | -1.66 ± 0.12 | -0.805 ± 0.15
GAGAAGCAAUAUUACGCUGA | -1.49 ± 0.17 | -1.29 ± 0.15
GAGAAGCAAUAUUACGCUUU | -3.35 ± 0.14 | -2.76 ± 0.14

Source: the supplement of paper PMC7877785
